Paper PMC6423285

Columns and labels:
[1] = biological target: NBS1 (UniProt O60934); assay: peptide-bead pull-down from cell lysate; conditions: reference: non-phospho peptide …; sites S462
[2] = biological target: NBS1 FHA+BRCT1/2 (UniProt O60934); assay: peptide-bead pull-down of purified GST fusion; conditions: reference: non-phospho peptide …; sites S462

UFL1 (from UniProt O94874) pS462 peptide
binding against the reference [1]: stronger | binding against the reference [2]: stronger
